# Reference: patent US20180194862A1 (AbbVie / Abbott, published 2018)
# Residue numbers refer to the chain shown, from its start.
# B1: HuAb17 (antibody, V domains shown)
# VH: EVQLVQSGAEVKEPGASVKVSCKASGDTFNRYYVHWARQAPGQGLEWMGIINPSGVSTTYAQKFQGRVTMTRDTPTNTVYMELGSLRPEDTAVYFCAESRGSGYNYFAMDVWGQGTLVTVSS
# VL: SYELTQPPSVSVSPGQTADITCSGDKLGDKYASWYQQKPGQSPVLVIYQDNRRPSGIPERFSGSNSGNTATLTISGTQAMDEADYYCQAWDSDTYVFGPGTKVTVL
# notes: fully human antibody
# B2: HuAM12 (antibody, V domains shown)
# VH: EVQLVQSGAEVKKPGASVKVSCKASGDTFHRYYVHWVRQAPGQGLEWMGIINPSGVSTTYAQKFQGRVTMTRDTSTSTVYMELSSLRSEDTAVYYCAEVRGSGFNYFGMDVWGQGTLVTVSS
# VL: B1 VL with D19S, P99T
# notes: fully human antibody
# B3: HuAM14 (antibody, V domains shown)
# VH: B2 VH with H30K, V34M
# VL: B1 VL with D19S, P99T
# notes: fully human antibody
# B4: HuAM13 (antibody, V domains shown)
# VH: B2 VH with H30N, H35Q, V99T
# VL: B1 VL with D19S, A89V, P99T
# notes: fully human antibody
# B5: HuAM11 (antibody, V domains shown)
# VH: B2 VH with H30K, V34M
# VL: B1 VL with D19S, A89V, P99T
# notes: fully human antibody
# B6: HuAM17 (antibody, V domains shown)
# VH: B2 VH with H30N, H35Q, V99S, G101V, S102P, F104Y, Y106I, G108A
# VL: B1 VL with D19S, P99T
# notes: fully human antibody
# B7: HuAM7 (antibody, V domains shown)
# VH: B2 VH with H30N, F104Y
# VL: B1 VL with D19S, P99T
# notes: fully human antibody
# B8: HuAM6 (antibody, V domains shown)
# VH: B2 VH with H30N, V99S, G101V, S102P, F104Y, Y106N, G108A
# VL: B1 VL with D19S, P99T
# notes: fully human antibody
# B9: HuAM1 (antibody, V domains shown)
# VH: B2 VH with H30K, H35Q, V99S, F104Y, G108A
# VL: B1 VL with D19S, P99T
# notes: fully human antibody
# B10: HuAM18 (antibody, V domains shown)
# VH: B2 VH with H30N, V99T, F104Y
# VL: B1 VL with D19S, P99T
# notes: fully human antibody
# B11: AD175.14.11 (antibody, V domains shown)
# VH: EVQLQQSGPELVKPGASVKISCKASGYTFTDYYMNWVKQSHGKSLEWIGDINPNNGGTSYNQKFKGKATLTVDKSSSTAYMELRSLTSEDSAVYYCARRGGLGRGTYALDYWGQGTSVTVSS
# VL: DIQMTQTTSSLSASLGDRVTISCRASQDISNYLNWYQQKPDGTVKPLIYYTSRLHLGVPSRFSGSGSGTDYSLTISNLEQEDIATYFCQQGNTLPLTFGAGTKLELK
# notes: mouse hybridoma antibody; also called muAb3
# B12: AD163.10.7 (antibody, V domains shown)
# VH: LVQPGGSLSLSCAASGFTFSDYYMSWVRQPPGKALEWLGFIRNKANGYTTEFSASVKGRFTISRDNSQSILYLQMNALRAEDSATYYCARYGGLRQGWYFDVWGTGTTVTVSS
# VL: B11 VL with S30R, P46L, L56S, N92K, L96W, A100G, T102S, L106M
# notes: mouse hybridoma antibody; also called muAb4
# B13: AD166.4.4 (antibody, V domains shown)
# VH: QVQLQQSGAELMKPGASAKLSCKATGYTFTGYWIQWVKQRPGHGLEWIGEILPGGDHTKYNEKFRGKATFTSDTSSNTVYMQLSSLTTEDSAIYYCARVGGDYWGQGTTLTVSS
# VL: DVVMTQTPLSLPVSLGDQASISCRSSQSLVNSNENTYLHWYLQKPGQSPKLLIYKVFNRYSGVPDRFSGSGSGTDFTLKISRVEAEDLGVYFCFQSTHVPWTFGGGTKLEIK
# notes: mouse hybridoma antibody; also called muAb2
# B14: AD163.9.3 (antibody, V domains shown)
# VH: QVQLQQPGAELVKPGASVKMSCKASGYTFTSYWITWVKQRPGQGLEWIGEINPGSGSTNYNEKFKSKATLTVDTSSSTAYMQLSSLTSEDSAVYYCARNRGTGDYWGQGTTLTVSS
# VL: B13 VL with N31H, N33Y, E34G, L51F, F57S, Y60I, F67L, A85P, F94S, W101Y
# notes: mouse hybridoma antibody; also called muAb1
# B15: AD163.7.2 (antibody, V domains shown)
# VH: QVQLQQSGPELVKSGASVKISCKASGYTFTDYYINWVKQRPGQGLEWIGWIFPGSGSVYCNEQFKGQATLTVDRSSSTAYMLLSSLTSEDSAVYFCASSLGKFAYWGQGTLVTVSA
# VL: DIVMTQSQKFMSTTVGDRVSITCKASQSVVTAVAWYQQKPGQSPKLLIYSASNRYTGVPDRFTGSGSGTDFALTIRTMQSEDLADYFCQQYSSYPYTFGGGTKLEIK
# notes: mouse hybridoma antibody; also called muAb8
# B16: AD164.76.3 (antibody, V domains shown)
# VH: DVQLQESGPGLVKPSQSLSLTCSVTGYSITSNYYWNWIRQFPGNKLEWMGYIRYDGSNNYNPSLKNRISITRDTSKNQFFLRLNSVTTEDTATYYCTRLDYWGQGTTLTVSS
# VL: DAVMTQTPLSLPVSLGDQASISCRSSQSLENSNGNTFLNWFLQKPGQSPQLLIYRISNRFSGVPDRFSGSGSGTDFTLKISRVEAEDLGVYFCLQVTHVPFTFGSGTKLEIK
# notes: mouse hybridoma antibody; also called muAb10; AD164.76.2
# B17: AD165.1.2 (antibody, V domains shown)
# VH: DVQLQESGPGLVEPSQSLFLTCSVTGYSITTNYNWNWIRQFPGNKLEWMGYIRHDGTNNYNPSLKNRISIIRDTPKNQFFLKLNSVTTEDTAIYFCTRLDYWGQGTSVTVSS
# VL: B16 VL with N33Y, K44R, I56V, S61C, V90I, F101Y, S105G
# notes: mouse hybridoma antibody; also called muAb5
# B18: AD164.14.6 (antibody, V domains shown)
# VH: B16 VH with R82K, T97A
# VL: B16 VL with S32T, I56V
# notes: mouse hybridoma antibody; also called muAb9
# B19: AD163.162.1 (antibody, V domains shown)
# VH: QVQLQQPGAELVRPGSSVKLSCKASGYTFTSYWMHWVKQRPIQGLEWIGNIDPSNGETHYNQKFKDKATLTVDKSSSTAYMQLSSLTSEDSAVYYCARERIYYSGSTYDGYFDVWGTGTTVTVSS
# VL: QIVLTQSPAIMSASPGEKVTMTCSASSSLSYMHWYQQKSGTSPKRWIYDTSKLASGVPARFSGSGSGTSYSLTISSMEAEDAATYYCQQWSSNPWTFGGGTKLEIK
# notes: mouse hybridoma antibody; also called muAb6
# B20: AD163.27.12 (antibody, V domains shown)
# VH: B19 VH
# VL: B19 VL with A79G, A82G
# notes: mouse hybridoma antibody; also called muAb7
# Target: T1, mesothelin on cells (endogenous on SN12C, OVCAR3, SW1990); HEK293 cells expressing cell-surface human … (human, UniProt Q13421 296-598)
# T1 construct: whole, on cells; also called cell-surface MSLN
# Test: FACS, SN12C (CA125-)
# Experimental: (§1) The binding of anti-mesothelin affinity matured variants was measured by FACS on the ovarian cancer cell line OVCAR3, the pancreatic cancer cell line SW1990, and the renal cancer cell line SN12C. Both OVCAR3 and SW1990 express CA125, but CA125 expression on SN12C cells was not detected.
# T1 sequence (Q13421 other isoform, or with tags, fused parts or gaps limits assumed): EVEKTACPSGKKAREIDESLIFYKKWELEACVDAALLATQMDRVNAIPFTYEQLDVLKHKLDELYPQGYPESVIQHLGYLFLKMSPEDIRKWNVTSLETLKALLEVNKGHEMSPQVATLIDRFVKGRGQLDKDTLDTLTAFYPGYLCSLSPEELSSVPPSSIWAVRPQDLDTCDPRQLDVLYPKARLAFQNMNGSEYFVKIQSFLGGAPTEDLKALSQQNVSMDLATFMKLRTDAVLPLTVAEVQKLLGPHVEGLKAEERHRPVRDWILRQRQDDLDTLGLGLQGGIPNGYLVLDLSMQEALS
EC50 [µg/mL],Maximum binding (MFI),Binder
2.74,11000,B1
0.09,9630,B2
0.09,9800,B3
0.09,9870,B4
0.04,7530,B5

# Target: T2, cynomolgus mesothelin (cynomolgus)
# T2 construct: also called cynoMSLN; Cyno MSLN
# Test: SPR
Kd [nM],koff [s⁻¹],kon [M⁻¹ s⁻¹],Binder
8.1,0.00013,15000,B1
3.4,9.1e-05,27000,B6
4.9,0.00011,22000,B7
3.9,8.5e-05,22000,B8
11,0.0002,18000,B9
9.3,0.00013,14000,B10

# Target: T3, human mesothelin (human, UniProt Q13421 296-580, limits assumed)
# T3 construct: also called Human MSLN
# Test: SPR
# T3 sequence (Q13421 other isoform, or with tags, fused parts or gaps limits assumed): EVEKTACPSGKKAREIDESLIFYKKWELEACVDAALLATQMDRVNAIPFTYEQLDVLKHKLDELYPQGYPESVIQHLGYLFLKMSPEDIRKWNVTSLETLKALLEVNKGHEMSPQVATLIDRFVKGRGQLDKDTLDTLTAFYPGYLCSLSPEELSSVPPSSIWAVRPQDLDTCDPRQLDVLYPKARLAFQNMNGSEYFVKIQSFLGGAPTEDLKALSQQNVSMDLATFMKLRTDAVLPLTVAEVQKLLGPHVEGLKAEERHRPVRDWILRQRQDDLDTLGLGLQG
Kd [nM],koff [s⁻¹],kon [M⁻¹ s⁻¹],Binder
2.6,3.2e-05,12000,B1
0.53,1.5e-05,29000,B6
≤ 0.39,≤ 1e-05,26000,B7
1,2.4e-05,24000,B8
2.7,5.1e-05,19000,B9
≤ 0.66,≤ 1e-05,16000,B10

# Target: human CD40 on cells (HEK293 stable transfectants, HEK-Blue CD40 cells, human B cells, monocytic cells, … (human, UniProt P25942 21-277))
# Test: cell-based or functional assay
# Sequence of human CD40 on cells (HEK293 stable transfectants, HEK-Blue CD40 cells, human B cells, monocytic cells, … (P25942 21-277 limits assumed): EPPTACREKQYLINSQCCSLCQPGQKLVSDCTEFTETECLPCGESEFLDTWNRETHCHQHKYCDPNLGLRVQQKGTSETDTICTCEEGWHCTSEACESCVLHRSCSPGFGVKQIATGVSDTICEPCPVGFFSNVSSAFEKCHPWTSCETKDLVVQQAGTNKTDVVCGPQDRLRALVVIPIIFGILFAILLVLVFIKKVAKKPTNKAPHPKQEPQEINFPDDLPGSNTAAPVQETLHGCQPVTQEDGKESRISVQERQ
"Monocyte activation (THP1-Xblue, OD655) [OD655]",moDC activation (IL-12p70) [pg/mL],Binder
0.2,0,B11
0.16,1320,B12
0.24,0,B13
0.19,2220,B14
0.13,905,B15
0.16,770,B16
0.14,720,B17
0.15,878,B18
0.11,2160,B19
0.12,1510,B20

# Target: T4, soluble form of the extracellular domain of human CD40 (Creative BioMart) (human, UniProt P25942 21-193)
# T4 construct: Bought
# Test: SPR, Ab captured
# Experimental: CD40 binding kinetics was analyzed by surface plasmon resonance assay with a Biacore T200 instrument (Table 1-5). Briefly, a goat anti-mouse Fc antibody (Pierce) or goat anti-human Fc (Pierce) was immobilized on a CM5 sensor chip, followed by capture of the anti-CD40 antibodies on the test surface. Subsequently, the soluble form of the extracellular domain of human CD40 (Creative BioMart) or cynomolgus (cyno) CD40 (Creative BioMart) was injected, and the binding and dissociation were measured.
# T4 sequence (P25942 21-193 limits assumed): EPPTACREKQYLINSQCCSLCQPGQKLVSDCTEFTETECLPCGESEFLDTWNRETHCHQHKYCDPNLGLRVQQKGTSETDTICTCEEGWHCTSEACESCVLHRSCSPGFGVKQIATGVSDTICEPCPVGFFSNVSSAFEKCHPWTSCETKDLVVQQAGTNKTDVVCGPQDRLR
Kd [nM],koff [s⁻¹],kon [M⁻¹ s⁻¹],Binder
170,0.012,69000,B11
76,0.17,2.3e+06,B12
3.5,0.0096,2.8e+06,B13
35,0.016,470000,B14
4.1,0.0042,1e+06,B15
13,0.034,2.6e+06,B16
0.88,0.002,2.3e+06,B17
19,0.052,2.8e+06,B18
63,0.0048,76000,B19
64,0.0048,75000,B20

# Target: T1, mesothelin on cells (endogenous on …)
# Test: FACS, OVCAR3 (CA125+)
# Experimental: as §1
EC50 [µg/mL],Maximum binding (MFI),Binder
2.9,1640,B1
0.8,3270,B2
0.7,3370,B3
0.7,3670,B4
0.7,3430,B5
